Test results as given in article PMC12607630, “ZapC crosslinks FtsZ filaments through a dual-binding mechanism modulated by the intrinsically disordered linker of FtsZ in Escherichia coli” (mBio, 2025).
Several values for one entry are separate records, joined by “and”; a condition that tells them apart may be missing. Equal values may be shown once.

Key:
Assay in all cases: BLI; 6×His-ZapC or its mutants (0.5 µM) loaded on Ni-NTA biosensors, untagged FtsZ or its variants in solution; Octet-Red96, 30°C, 1× Pol buffer (50 mM HEPES-NaOH pH 6.8, 50 mM KCl, 10 mM MgCl2); apparent Kd from the signal at the end of association against concentration, one-site fit; three repeats with mean (X) and SD
Settings in all cases: both partners purified
[1] = target: T1, FtsZ (untagged, wild type) (Escherichia coli, UniProt P0A9A6 1-383)
T1 construct: also called wild-type FtsZ; source: E. coli BL21(DE3), plasmid pLY17, purified (Ni-NTA); 6×His-SUMO tag removed with Ulp1; not shown: 6×His-SUMO, N-terminal, cleaved
T1 sequence (looked up): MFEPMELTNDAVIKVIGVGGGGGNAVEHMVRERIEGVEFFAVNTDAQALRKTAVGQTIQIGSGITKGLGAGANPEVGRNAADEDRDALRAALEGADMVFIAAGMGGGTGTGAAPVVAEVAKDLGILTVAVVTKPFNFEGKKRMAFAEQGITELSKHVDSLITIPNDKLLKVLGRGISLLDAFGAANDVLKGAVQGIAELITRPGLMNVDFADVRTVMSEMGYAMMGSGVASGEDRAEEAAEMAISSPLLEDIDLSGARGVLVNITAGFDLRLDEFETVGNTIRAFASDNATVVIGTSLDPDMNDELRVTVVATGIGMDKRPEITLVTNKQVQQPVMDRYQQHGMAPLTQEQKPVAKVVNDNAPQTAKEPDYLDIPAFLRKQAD

[2] = target: T2, FtsZ I323L (untagged) (Escherichia coli, UniProt P0A9A6 1-383, I323L)
T2 construct: FtsZ of Escherichia coli with I323L (CTL); Derivative of pLY17 by site-directed mutagenesis; source: E. coli BL21(DE3), plasmid pLY20, purified (Ni-NTA); 6×His-SUMO tag removed with Ulp1; not shown: 6×His-SUMO, N-terminal, cleaved
T2 sequence (looked up): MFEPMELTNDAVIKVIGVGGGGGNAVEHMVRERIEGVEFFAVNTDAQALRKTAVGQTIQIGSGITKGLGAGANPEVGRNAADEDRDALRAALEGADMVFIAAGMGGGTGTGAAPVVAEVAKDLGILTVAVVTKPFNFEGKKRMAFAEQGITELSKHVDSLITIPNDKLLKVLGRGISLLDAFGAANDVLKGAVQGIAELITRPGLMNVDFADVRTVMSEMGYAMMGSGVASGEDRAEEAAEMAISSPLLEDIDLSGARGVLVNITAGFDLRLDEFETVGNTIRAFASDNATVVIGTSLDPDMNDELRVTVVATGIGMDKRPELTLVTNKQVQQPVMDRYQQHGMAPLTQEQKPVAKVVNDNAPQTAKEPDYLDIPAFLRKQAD

[3] = target: T3, FtsZ 1-316 (untagged) (Escherichia coli, UniProt P0A9A6 1-316)
T3 construct: lacks the entire CTL and the CTP; source: E. coli BL21(DE3), plasmid pLY343, purified (Ni-NTA); 6×His-SUMO tag removed with Ulp1; not shown: 6×His-SUMO, N-terminal, cleaved
T3 sequence (looked up): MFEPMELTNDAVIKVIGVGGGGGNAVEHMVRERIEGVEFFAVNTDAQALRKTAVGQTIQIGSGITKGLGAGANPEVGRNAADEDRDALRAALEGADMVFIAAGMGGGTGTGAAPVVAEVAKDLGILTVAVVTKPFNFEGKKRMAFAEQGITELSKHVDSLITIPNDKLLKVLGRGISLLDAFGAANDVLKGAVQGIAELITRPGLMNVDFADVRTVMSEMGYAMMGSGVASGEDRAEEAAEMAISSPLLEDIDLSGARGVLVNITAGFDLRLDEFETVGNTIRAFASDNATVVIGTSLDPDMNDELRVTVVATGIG

[4] = target: T4, FtsZ F285S (untagged) (Escherichia coli, UniProt P0A9A6 1-383, F285S)
T4 construct: FtsZ of Escherichia coli with F285S (globular domain); Derivative of pLY17 by site-directed mutagenesis; insert starts at codon 2 as in pLY17; source: E. coli BL21(DE3), plasmid pLY19, purified (Ni-NTA); 6×His-SUMO tag removed with Ulp1; not shown: 6×His-SUMO, N-terminal, cleaved
T4 sequence (looked up): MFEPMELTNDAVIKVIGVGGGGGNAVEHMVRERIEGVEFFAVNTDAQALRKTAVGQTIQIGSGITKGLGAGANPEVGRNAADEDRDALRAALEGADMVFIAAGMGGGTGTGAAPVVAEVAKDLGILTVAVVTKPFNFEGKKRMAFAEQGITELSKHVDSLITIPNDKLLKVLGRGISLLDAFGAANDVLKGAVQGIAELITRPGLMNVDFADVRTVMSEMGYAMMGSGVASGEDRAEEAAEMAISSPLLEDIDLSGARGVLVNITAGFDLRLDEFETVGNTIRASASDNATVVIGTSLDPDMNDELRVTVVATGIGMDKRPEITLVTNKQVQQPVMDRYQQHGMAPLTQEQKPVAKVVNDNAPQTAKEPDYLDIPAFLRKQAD

Kd [1]: 377 nM and 395 nM and 364 nM and 379 nM
Kd [2]: 647 nM and 635 nM and 620 nM and 579 nM
Kd [3]: 1540 nM and 1910 nM and 1290 nM and 1580 nM
Kd [4]: 5020 nM and 6370 nM and 6130 nM and 5840 nM
B1: 6×His-ZapC (natural protein)
chain: not shown
notes: ZapC, FtsZ-associated protein of Escherichia coli; Construction of pSD323 is not described; also called His-tagged ZapC; source: E. coli, plasmid pSD323 (pQE80, Plac::6×His-ZapC), purified (Ni-NTA); not shown: His6, N-terminal, kept
